# Paper PMC9544338, “Restoration of the GTPase activity and cellular interactions of Gαo mutants by Zn^2+ in GNAO1 encephalopathy models” (Science Advances, 2022)
# B1: His6-RGS19 (natural protein, UniProt P49795 1-217, looked up)
# chain: MPTPHEAEKQITGPEEADRPPSMSSHDTASPAAPSRNPCCLCWCCCCSCSWNQERRRAWQASRESKLQPLPSCEVCATPSPEEVQSWAQSFDKLMHSPAGRSVFRAFLRTEYSEENMLFWLACEELKAEANQHVVDEKARLIYEDYVSILSPKEVSLDSRVREGINKKMQEPSAHTFDDAQLQIYTLMHRDSYPRFLSSPTYRALLLQGPSQSSSEA
# notes: RGS19 (regulator of G protein signaling 19); plasmid previously described; source: N2a cells, transfected, in lysate
# Target: T1, Gαo-GFP (C-terminally tagged) wild type (human, UniProt P09471 1-354)
# T1 construct: Gαo (GNAO1); also called WT Gαo; source: N2a cells, transfected, in lysate; not shown: GFP, C-terminal, kept
# T1 sequence (P09471 whole entry): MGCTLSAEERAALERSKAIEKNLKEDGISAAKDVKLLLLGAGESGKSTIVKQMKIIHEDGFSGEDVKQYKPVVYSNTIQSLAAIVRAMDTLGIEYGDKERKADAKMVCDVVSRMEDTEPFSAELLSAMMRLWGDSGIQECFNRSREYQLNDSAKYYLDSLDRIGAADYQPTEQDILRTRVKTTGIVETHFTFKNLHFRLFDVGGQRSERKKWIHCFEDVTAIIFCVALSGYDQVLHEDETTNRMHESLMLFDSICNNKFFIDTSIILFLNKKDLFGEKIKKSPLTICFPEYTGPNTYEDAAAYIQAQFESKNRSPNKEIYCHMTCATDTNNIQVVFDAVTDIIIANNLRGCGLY
# Experiment: co-IP; N2a cells cotransfected with His6-RGS19 and Gαo-GFP (C-terminally tagged) variants, treated with 1 μM ZPT for 3 hours before IP of Gαo with a nanobody against GFP; Western blot; fold against DMSO-treated cells
# Conditions: partners not purified
binder,measurement,value
B1,fold increase of the interaction by ZPT over DMSO,~2 fold
